The supplement of paper PMC9112550, “Optimization of the antimicrobial peptide Bac7 by deep mutational scanning” (BMC Biology, 2022)
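Also: peptides expressed intracellularly from a pBAD plasmid library in pooled LB shake-flask culture, induced with 0.3% L-arabinose, DNA abundance read by NGS, three biological replicates, DESeq2 with apeglm shrinkage.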

These sequences were tested on Escherichia coli TOP10 (assay: shrunken log2 fold change of peptide-encoding DNA abundance (4.5 h post-induction vs induction); higher = less antimicrobial activity (less host growth inhibition)). Settings: time post-induction: 4.5 h; library: site-saturation at positions 5, 18, 19, 20.
In the case of RRIRYRPPRLPRPRPRPKAPPRP, the “shrunken log2 fold change” value is reported as 0.291. In the case of RRIRMRPPRLPRPRPRPTSPPRP, the “shrunken log2 fold change” value is reported as 0.278. In the case of RRIRYRPPRLPRPRPRPPFRPRP, the “shrunken log2 fold change” value is reported as -0.0932. RRIRQRPPRLPRPRPRPGGDPRP was tested, and the “shrunken log2 fold change” value was 0.0869. For RRIRSRPPRLPRPRPRPQPHPRP, the “shrunken log2 fold change” value was 0.17. For RRIRNRPPRLPRPRPRPNVPPRP, the “shrunken log2 fold change” value was -0.128. With RRIRNRPPRLPRPRPRPPEEPRP the “shrunken log2 fold change” value was -0.032. For RRIRYRPPRLPRPRPRPQIWPRP, the “shrunken log2 fold change” value was -0.662. RRIRERPPRLPRPRPRPWPQPRP was tested, and the “shrunken log2 fold change” value was -0.0216. With RRIRWRPPRLPRPRPRPQWYPRP the “shrunken log2 fold change” value was -0.28. With RRIRKRPPRLPRPRPRPYHLPRP the “shrunken log2 fold change” value was -0.0564. With RRIRARPPRLPRPRPRPCIWPRP the “shrunken log2 fold change” value was 0.118. For RRIRGRPPRLPRPRPRPSMRPRP, the “shrunken log2 fold change” value was 1.15. RRIRARPPRLPRPRPRPTKVPRP was tested, and the “shrunken log2 fold change” value was 0.339. For RRIRRRPPRLPRPRPRPTDRPRP, the “shrunken log2 fold change” value was 0.194. With RRIRSRPPRLPRPRPRPVGPPRP the “shrunken log2 fold change” value was 0.373. RRIRNRPPRLPRPRPRPKIWPRP was tested, and the “shrunken log2 fold change” value was 0.0854. RRIRRRPPRLPRPRPRPPAHPRP was tested, and the “shrunken log2 fold change” value was 0.728. With RRIRGRPPRLPRPRPRPRLNPRP the “shrunken log2 fold change” value was 0.57. In the case of RRIRGRPPRLPRPRPRPGQGPRP, the “shrunken log2 fold change” value is reported as 0.0965. For RRIRTRPPRLPRPRPRPAMSPRP, the “shrunken log2 fold change” value was 0.00971. For RRIRQRPPRLPRPRPRPPHWPRP, the “shrunken log2 fold change” value was 0.641. In the case of RRIRARPPRLPRPRPRPIGCPRP, the “shrunken log2 fold change” value is reported as 0.445. For RRIRVRPPRLPRPRPRPTCAPRP, the “shrunken log2 fold change” value was 0.579. With RRIRWRPPRLPRPRPRPAYRPRP the “shrunken log2 fold change” value was -0.00641. In the case of RRIRVRPPRLPRPRPRPKDHPRP, the “shrunken log2 fold change” value is reported as -0.308. RRIRGRPPRLPRPRPRPHWQPRP was tested, and the “shrunken log2 fold change” value was 0.258. For RRIRGRPPRLPRPRPRPNFDPRP, the “shrunken log2 fold change” value was 0.491. In the case of RRIRERPPRLPRPRPRPCCLPRP, the “shrunken log2 fold change” value is reported as -0.57. For RRIRKRPPRLPRPRPRPFKNPRP, the “shrunken log2 fold change” value was -0.0646. In the case of RRIRRRPPRLPRPRPRPMVNPRP, the “shrunken log2 fold change” value is reported as -0.0292. For RRIRHRPPRLPRPRPRPAEMPRP, the “shrunken log2 fold change” value was -0.01. For RRIRTRPPRLPRPRPRPYLFPRP, the “shrunken log2 fold change” value was -0.71. With RRIRYRPPRLPRPRPRPFQCPRP the “shrunken log2 fold change” value was -0.157. With RRIRKRPPRLPRPRPRPSTQPRP the “shrunken log2 fold change” value was 0.169. In the case of RRIRLRPPRLPRPRPRPFRWPRP, the “shrunken log2 fold change” value is reported as 0.202. With RRIRGRPPRLPRPRPRPMVVPRP the “shrunken log2 fold change” value was 0.434. With RRIRLRPPRLPRPRPRPAMRPRP the “shrunken log2 fold change” value was 0.28. For RRIRMRPPRLPRPRPRPSEVPRP, the “shrunken log2 fold change” value was 0.159. With RRIRMRPPRLPRPRPRPNHLPRP the “shrunken log2 fold change” value was -0.0575. In the case of RRIRGRPPRLPRPRPRPTLWPRP, the “shrunken log2 fold change” value is reported as 1.27. For RRIRIRPPRLPRPRPRPHYMPRP, the “shrunken log2 fold change” value was -0.943. For RRIRGRPPRLPRPRPRPMVMPRP, the “shrunken log2 fold change” value was 0.342. In the case of RRIRDRPPRLPRPRPRPNGSPRP, the “shrunken log2 fold change” value is reported as -0.0808. With RRIRTRPPRLPRPRPRPNCMPRP the “shrunken log2 fold change” value was -0.16. In the case of RRIRSRPPRLPRPRPRPSNTPRP, the “shrunken log2 fold change” value is reported as -0.748. In the case of RRIRFRPPRLPRPRPRPPFEPRP, the “shrunken log2 fold change” value is reported as 0.347. With RRIRKRPPRLPRPRPRPAWHPRP the “shrunken log2 fold change” value was 0.378. In the case of RRIRRRPPRLPRPRPRPQWGPRP, the “shrunken log2 fold change” value is reported as 0.323. With RRIRPRPPRLPRPRPRPTGPPRP the “shrunken log2 fold change” value was 0.212. In the case of RRIRVRPPRLPRPRPRPLAEPRP, the “shrunken log2 fold change” value is reported as 0.433. In the case of RRIRIRPPRLPRPRPRPSGVPRP, the “shrunken log2 fold change” value is reported as -0.666. With RRIRERPPRLPRPRPRPPTLPRP the “shrunken log2 fold change” value was 0.162. In the case of RRIRTRPPRLPRPRPRPQWHPRP, the “shrunken log2 fold change” value is reported as -0.461. With RRIRVRPPRLPRPRPRPCTIPRP the “shrunken log2 fold change” value was -0.0586. In the case of RRIRHRPPRLPRPRPRPDEAPRP, the “shrunken log2 fold change” value is reported as -0.0728. RRIRDRPPRLPRPRPRPNDHPRP was tested, and the “shrunken log2 fold change” value was -0.53. For RRIRRRPPRLPRPRPRPYSYPRP, the “shrunken log2 fold change” value was -0.0587. With RRIRTRPPRLPRPRPRPWLKPRP the “shrunken log2 fold change” value was 0.18. With RRIRGRPPRLPRPRPRPLLSPRP the “shrunken log2 fold change” value was 1.04. With RRIRHRPPRLPRPRPRPLHMPRP the “shrunken log2 fold change” value was -0.0732. In the case of RRIRPRPPRLPRPRPRPSCPPRP, the “shrunken log2 fold change” value is reported as -0.123. RRIRHRPPRLPRPRPRPGGMPRP was tested, and the “shrunken log2 fold change” value was 0.274. With RRIRTRPPRLPRPRPRPTHAPRP the “shrunken log2 fold change” value was 4.04. With RRIRLRPPRLPRPRPRPQRNPRP the “shrunken log2 fold change” value was -0.789. RRIRWRPPRLPRPRPRPHAFPRP was tested, and the “shrunken log2 fold change” value was 0.154. In the case of RRIRVRPPRLPRPRPRPCDAPRP, the “shrunken log2 fold change” value is reported as 0.121. For RRIRARPPRLPRPRPRPSAMPRP, the “shrunken log2 fold change” value was 0.38. RRIRYRPPRLPRPRPRPGLFPRP was tested, and the “shrunken log2 fold change” value was -0.0365. For RRIRARPPRLPRPRPRPKAQPRP, the “shrunken log2 fold change” value was 1.26. In the case of RRIRKRPPRLPRPRPRPMGSPRP, the “shrunken log2 fold change” value is reported as 0.0567. RRIRVRPPRLPRPRPRPVVMPRP was tested, and the “shrunken log2 fold change” value was -0.271. With RRIRNRPPRLPRPRPRPMAHPRP the “shrunken log2 fold change” value was -0.0456. RRIRDRPPRLPRPRPRPGPKPRP was tested, and the “shrunken log2 fold change” value was 0.386. With RRIRDRPPRLPRPRPRPNIEPRP the “shrunken log2 fold change” value was -0.00164. With RRIRNRPPRLPRPRPRPQESPRP the “shrunken log2 fold change” value was -0.342. For RRIRTRPPRLPRPRPRPKWPPRP, the “shrunken log2 fold change” value was 1.51. In the case of RRIRTRPPRLPRPRPRPSSIPRP, the “shrunken log2 fold change” value is reported as -0.233. RRIRRRPPRLPRPRPRPNPMPRP was tested, and the “shrunken log2 fold change” value was 0.359. RRIRFRPPRLPRPRPRPIRMPRP was tested, and the “shrunken log2 fold change” value was -0.191. RRIRIRPPRLPRPRPRPEVCPRP was tested, and the “shrunken log2 fold change” value was 0.503. RRIRERPPRLPRPRPRPWWNPRP was tested, and the “shrunken log2 fold change” value was -0.0135. With RRIRIRPPRLPRPRPRPVINPRP the “shrunken log2 fold change” value was -0.198. In the case of RRIRSRPPRLPRPRPRPVEKPRP, the “shrunken log2 fold change” value is reported as -0.0804. In the case of RRIRFRPPRLPRPRPRPYLMPRP, the “shrunken log2 fold change” value is reported as -0.687. In the case of RRIRIRPPRLPRPRPRPKFSPRP, the “shrunken log2 fold change” value is reported as -0.244. With RRIRYRPPRLPRPRPRPARTPRP the “shrunken log2 fold change” value was -0.298. For RRIRMRPPRLPRPRPRPIPEPRP, the “shrunken log2 fold change” value was -0.0403. For RRIRIRPPRLPRPRPRPINYPRP, the “shrunken log2 fold change” value was -0.379. RRIRFRPPRLPRPRPRPGCMPRP was tested, and the “shrunken log2 fold change” value was -0.178. In the case of RRIRYRPPRLPRPRPRPGVYPRP, the “shrunken log2 fold change” value is reported as -0.0135. For RRIRPRPPRLPRPRPRPREWPRP, the “shrunken log2 fold change” value was 0.151. In the case of RRIRSRPPRLPRPRPRPAWRPRP, the “shrunken log2 fold change” value is reported as 0.567. In the case of RRIRPRPPRLPRPRPRPNNQPRP, the “shrunken log2 fold change” value is reported as -0.353. RRIRSRPPRLPRPRPRPNALPRP was tested, and the “shrunken log2 fold change” value was -0.0803. With RRIRHRPPRLPRPRPRPVGYPRP the “shrunken log2 fold change” value was 0.00996. RRIRMRPPRLPRPRPRPGNLPRP was tested, and the “shrunken log2 fold change” value was 0.0466. With RRIRTRPPRLPRPRPRPVRPPRP the “shrunken log2 fold change” value was 0.779. For RRIRLRPPRLPRPRPRPVYQPRP, the “shrunken log2 fold change” value was -0.0597. RRIRCRPPRLPRPRPRPFVDPRP was tested, and the “shrunken log2 fold change” value was -0.307. RRIRCRPPRLPRPRPRPPEGPRP was tested, and the “shrunken log2 fold change” value was 0.926. In the case of RRIRQRPPRLPRPRPRPSGYPRP, the “shrunken log2 fold change” value is reported as -0.0295. In the case of RRIRLRPPRLPRPRPRPRITPRP, the “shrunken log2 fold change” value is reported as -0.027. For RRIRMRPPRLPRPRPRPMKGPRP, the “shrunken log2 fold change” value was 0.235. In the case of RRIRLRPPRLPRPRPRPKCTPRP, the “shrunken log2 fold change” value is reported as 0.0446. For RRIRYRPPRLPRPRPRPSHAPRP, the “shrunken log2 fold change” value was -0.242. RRIRARPPRLPRPRPRPYQVPRP was tested, and the “shrunken log2 fold change” value was -0.327. With RRIRERPPRLPRPRPRPWNAPRP the “shrunken log2 fold change” value was 0.0455. With RRIRNRPPRLPRPRPRPLMAPRP the “shrunken log2 fold change” value was 0.176.
